Data taken from paper PMC11480844 (2024).

B1: H2-Kb / Ed16-1 (parent complex)
chain 1: GEQVEQRPPHLSVREGDSAVITCTYTDPNSYYFFWYKQEPGASLQLLMKVFSSTEINEGQGFTVLLNKKDKRLSLNLTAAHPGDSAAYFCAVSGSNNRIFFGDGTQLVVKP
chain 2: EAAVTQSPRSKVAVTGGKVTLSCHQTNNHDYMYWYRQDTGHGLRLIHYSYVADSTEKGDIPDGYKASRPSQENFSLILELASLSQTAVYFCASRTGTDYTFGSGTRLLVI
chain 3: not shown
chain 4: IQKTPQIQVYSRHPPENGKPNILNCYVTQFHPPHIEIQMLKNGKKIPKVEMSDMSFSKDWSFYILAHTEFTPTETDTYACRVKHDSMAEPKTVYWDRDM
chain 5: SIINFEKL
B2: H2-Kb / Ed10 (parent complex)
chain 1: GEQVEQRPPHLSVREGDSAFIICTYTDSATAYFYWYKQEPGAGLQLLMSVFSNVDRKEEQGLTVLLNKKDKRLSLNLTAAHPGDSAVYFCAVRGTGYQNFYFGKGTSLTVIP
chain 2: AQTIHQWPVAEIKAVGSPLSLGCTIKGKSSPNLYWYWQATGGTLQQLFYSITVGQVESVVQLNLSASRPKDDQFILSTEKLLLSHSGFYLCAWSPGYEQYFGPGTRLTVL
chain 3: not shown
chain 4: B1 chain 4
chain 5: SIINFEKL

Variants of: B1
Experiment: % of reporter cells activated (NFAT-GFP), raw
Also: test concentration or dose not given here.

ratio to parent	Variant
0.951	chain 5 L8K
0.0292	chain 5 S1D

Variants of: B2
Experiment: % of reporter cells activated (NFAT-GFP), raw

Variant	ratio to parent
chain 5 F5C	0.857
chain 5 F5P	0.437
chain 5 F5H	0.876
chain 5 F5G	0.581
chain 5 F5D	0.897
chain 5 F5N	0.711
chain 5 F5Y	1.03
chain 5 F5T	0.758
chain 5 F5V	0.775
chain 5 F5Q	0.879
chain 5 F5M	0.958
chain 5 F5R	0.815
chain 5 F5L	0.925
chain 5 F5W	0.659
chain 5 F5E	0.78
chain 5 F5I	0.815
chain 5 F5K	0.688
chain 5 F5A	0.912
chain 5 F5S	0.764
chain 5 K7F	0.184
chain 5 K7R	0.668
chain 5 K7M	0.28
chain 5 K7G	0.79
chain 5 K7A	0.495
chain 5 K7W	0.601

Variant	ratio to parent
chain 5 K7C	0.143
chain 5 K7D	0.355
chain 5 K7E	0.00697
chain 5 K7N	0.726
chain 5 K7H	0.183
chain 5 K7T	0.102
chain 5 K7L	0.461
chain 5 K7P	0.685
chain 5 K7S	0.744
chain 5 K7Q	0.0405
chain 5 K7V	0.563
chain 5 K7Y	0.402
chain 5 K7I	0.00197
chain 5 L8C	0.921
chain 5 L8A	0.858
chain 5 L8D	0.803
chain 5 L8E	0.721
chain 5 I3Y	0.368
chain 5 I3G	0.724
chain 5 I3D	0.691
chain 5 I3V	0.927
chain 5 I3T	0.829
chain 5 I3K	0.828
chain 5 I3Q	0.826
chain 5 I3M	0.913

Variant	ratio to parent
chain 5 I3L	0.972
chain 5 I3S	0.873
chain 5 I3F	0.713
chain 5 I3W	0.739
chain 5 I3N	0.683
chain 5 I3R	0.631
chain 5 I3C	0.914
chain 5 I3H	0.828
chain 5 I3P	0.933
chain 5 I3E	0.916
chain 5 I3A	0.96
chain 5 E6C	0.00556
chain 5 E6Q	0.19
chain 5 E6M	0.384
chain 5 E6T	0.0117
chain 5 E6Y	0.503
chain 5 E6I	0.00258
chain 5 E6P	0.045
chain 5 E6V	0.00689
chain 5 E6D	0.557
chain 5 E6R	0.0435
chain 5 E6A	0.0198
chain 5 E6N	0.0352
chain 5 E6F	0.0734
chain 5 E6W	0.00924

Variant	ratio to parent
chain 5 E6H	0.377
chain 5 E6L	0.0597
chain 5 E6K	0.878
chain 5 I2C	0.907
chain 5 I2T	1.02
chain 5 I2R	0.712
chain 5 I2L	0.955
chain 5 I2A	1.02
chain 5 I2Q	0.914
chain 5 I2S	0.988
chain 5 I2D	0.977
chain 5 I2K	0.876
chain 5 I2V	0.962
chain 5 I2P	0.973
chain 5 I2H	0.915
chain 5 I2W	0.751
chain 5 I2F	0.941
chain 5 I2M	0.933
chain 5 I2N	0.841
chain 5 I2G	0.939
chain 5 I2E	0.966
chain 5 I2Y	0.898

Results, then the variant that gave them:

ratio to parent	Variant
0.977	chain 5 S1A
0.978	chain 5 S1G
0.938	chain 5 S1D
0.841	chain 5 S1K
1.02	chain 5 S1M
0.72	chain 5 S1R
0.931	chain 5 S1Q
0.524	chain 5 S1N
0.726	chain 5 S1F
0.946	chain 5 S1P
1.01	chain 5 S1T
0.914	chain 5 S1L
0.888	chain 5 S1E
0.814	chain 5 S1I
0.759	chain 5 S1C
0.913	chain 5 S1V
1	chain 5 S1Y
0.00517	chain 5 N4V
0.13	chain 5 N4C
0.0998	chain 5 N4G
0.354	chain 5 N4Y
0.0998	chain 5 N4F
0.353	chain 5 N4A
0.342	chain 5 N4K
0.178	chain 5 N4E
0.551	chain 5 N4P

ratio to parent	Variant
0.33	chain 5 N4S
0.728	chain 5 N4L
0.0807	chain 5 N4I
0.0278	chain 5 N4T
0.189	chain 5 N4Q
0.104	chain 5 N4R
0.424	chain 5 N4W
0.777	chain 5 N4H
0.127	chain 5 N4M
0.847	chain 5 N4D
0.702	chain 5 L8W
0.838	chain 5 L8F
0.937	chain 5 L8G
0.864	chain 5 L8I
0.956	chain 5 L8Y
0.721	chain 5 L8V
0.813	chain 5 L8M
0.885	chain 5 L8P
0.88	chain 5 L8K
0.81	chain 5 L8T
0.74	chain 5 L8S
0.916	chain 5 L8H
0.862	chain 5 L8N
0.897	chain 5 L8Q
0.949	chain 5 L8R
